How the values were obtained:
[1] = test system: HT29 cells; assay: Flow cytometry of tumor cell targeting, HT29; type: cell-based, human; conditions: tested as 60 nM TKD-Cy5, 1 hour, Lys 05 10 μM
Experimental: (§1) Wherein, the protein C18 column (25 cm×10 mm) was used, with sample injection of 2×400 μL each time, and gradient elution was carried out for 30 minutes, 0.1% TFA (trifluoroacetic acid) solution to MeCN (acetonitrile): H2O (0.1% TFA)=70:30, and a flow rate was 4 mL/min. • (4) Target color tape peaks were collected, and the retention time of a labeled polypeptide was longer than that of an unlabeled polypeptide. • (5) The TKD-Cy5 molecule was diluted to 60 μM, and stored in a PBS solution, and kept in the dark at −20° C. 2. […] The cells were treated with corresponding drugs, namely, in the experimental groups, the cells were treated with 60 nM TKD-Cy5 coupling molecule, and in the control groups, the cells were treated with the Cy5 single molecule with corresponding concentration. The lysosome inhibitor Lys 05 with the final concentration of 10 μM was added into the control groups and the experimental groups at the same time, and the final volume of the culture solution in each well was 1 mL. […] The cells were resuspended with the PBS buffer solution, and centrifuged again, and the supernatant was discarded. The operation was repeated for three times. Finally, the cleaned cells were resuspended in 0.2 mL of PBS, wrapped with foil paper, and then analyzed on the flow cytometer (company: BECKMAN COULTER; model: Cytoflex), with the fluorescence channel of APC-A.

[2] = test system: HCT116 (KRas G13D); assay: Cell clone formation experiment, HCT116; conditions: 10 and 20 μg/mL
[3] = test system: KRas protein in SW1116 (KRas G12D); assay: Western blot of KRas degradation in SW1116 cells; type: cell-based
Description: Cell lines used in this embodiment were SW1116 (KRas G12D), SW480 (KRas G12V) and H358 (KRas G12C), all of which came from ATCC and have item numbers of CCL-233, CCL-228 and CRL-5800 respectively. The treatment process of each cell was consistent with that described in the influence of administration time on degradation of KRas above.

[4] = test system: HCT116 cells; assay: Flow cytometry of tumor cell targeting, HCT116; type: cell-based, human; conditions: tested as 60 nM TKD-Cy5, 1 hour, Lys 05 10 μM
Experimental: as §1

[5] = Toxic and side effects in mice (body weight, HE histopathology); type: in vivo; conditions: 25 and 50 mg/kg intraperitoneal, seven times (3 weeks)
Experimental: • (1) Balb/c nude mice, female, 4 weeks to 5 weeks old, purchased from Guangdong Laboratory Animal Center and raised in Laboratory Animal Center of Sun Yat-sen University, were used in this experiment. […] The mice were administered once every three days at a fixed time. Meanwhile, changes in body state, mental state and weight of the mice were observed and recorded. • (3) After continuous administration for seven times (3 weeks), the mice were euthanized (killed by cervical dislocation). […] All the animal experiments were carried out within relevant regulations of animal ethics of Sun Yat-sen University.

[6] = test system: KRas wild-type (HT29) colorectal cancer; assay: In-vivo tumor formation experiment, HT29 subcutaneous tumor; design: species or system mice; conditions: seven times
Experimental: • (1) Balb/c nude mice, female, 4 weeks to 5 weeks old, purchased from Guangdong Laboratory Animal Center and raised in Laboratory Animal Center of Sun Yat-sen University, were used in this experiment. […] After counting, 7.5 million HT29 and HCT116 cells were taken respectively, washed twice with PBS, centrifuged at 300 g for 5 minutes after fishing each washing, and collected. • (3) The cell dilution buffer solution having the composition of PBS: matrix glue (Corning Company)=1:1 was prepared to resuspend the cells. […] In the experiment, the administration volume was 150 μL, the administration frequency was once every three days at a fixed time, and the administration was continued for seven times. • (6) After the administration, each mouse was injected with 150 μL of tribromoethanol, and then killed by cervical dislocation. […]
• (1) Balb/c nude mice, female, 4 weeks to 5 weeks old, purchased from Guangdong Laboratory Animal Center and raised in Laboratory Animal Center of Sun Yat-sen University, were used in this experiment. The experimental mice were divided into two groups, with five mice in each group, which were respectively a phosphate buffer solution (PBS) control group and a […]. • (2) The HT29 and HCT116 cells in the logarithmic phase were digested with pancreatin, the digestion was stopped with the complete culture solution, and then the cells were counted. […]

[7] = test system: signal pathway KRas/Raf/ERK/c-myc in KRas wild-type cells HT29; assay: Western blot of EGFR downstream signal pathway, HT29; type: cell-based, human; conditions: 10 and 20 μg/mL, 24 hours, compared with control TKDm
Experimental: • (1) The colorectal cancer cells HCT116 (KRas G13D) and HT29 (KRas wt) were respectively spread in six-well plates, 500,000 cells per well. […] Then, the digestion was stopped with 1 mL of complete culture solution per well, the cell suspension was collected into a 1.5 mL EP tube, and centrifuged at the room temperature and 300 g for 3 minutes to collect cells. The cells were resuspended with 1 mL of PBS, and repeatedly centrifuged once. • (3) The supernatant was removed, 100 μL of lysate was added in each group (item number: P0013G; purchased from Beyotime Biotechnology Company). The cells were lysed on ice, vortically vibrated every 5 minutes, and centrifuged at 4° C. and 12,000 rpm for 30 minutes after being lysed for 30 minutes, and the supernatant was collected in a new 1.5 mL EP tube. • (4) The protein concentration was measured by the BCA method, and 20 μg of protein was taken from each group for SDS denaturation gel electrophoresis, transferred and blocked with 5% skim milk for 1 hour.

[8] = test system: normal intestinal epithelial cells FHC; assay: Flow cytometry of tumor cell targeting, normal cells FHC; type: cell-based, human; conditions: tested as 60 nM TKD-Cy5, 1 hour, Lys 05 10 μM
Experimental: as §1

[9] = test system: HT29 (KRas wt); assay: Cell clone formation experiment, HT29; conditions: 10 and 20 μg/mL

B1: TKD: fusion protein: tumour-cell-penetrating peptide BR2, anti-KRas nanobody VHH and lysosome recognition peptide CTM; SEQ ID NO.4 (protein)
chain: RAGLQFPVGRLLRRLLRDVQLQESGGGLVQAGGSLRLSCVASGRTFSTYPTGWFRQAPGKEREFVARINLSGGITNYADSVKGRFTISRDNAKNTVYLQMNSLKPEDTAVYYCGGGSTTWAGGIPTNFDYWGQGTQVTVSSGRKFERQKILDQRFFE
entry into cells (flow cytometry, Cy5 fluorescence) [1]: could specifically recognize and pass through the cell membrane to enter the colorectal cancer cells | inhibition of clone growth [2]: could significantly inhibit the growth | degradation of mutated KRas protein (western blot) [3]: could induce the degradation of the KRas proteins in different mutation states, and the degradation effect was remarkable | entry into cells (flow cytometry, Cy5 fluorescence) [4]: could specifically recognize and pass through the cell membrane to enter the colorectal cancer cells | changes in body weight ([5]; once every three days, vs PBS): did not show obvious changes in body weight | pathological analysis of lung, liver, spleen and kidney (HE) [5]: did not damage vital organs including lung, liver, spleen and kidney of the mice | inhibition of tumor growth (tumor weight) ([6]; TKD 25 and 50 mg/kg intraperitoneal, once every three days, vs PBS): could significantly inhibit the growth | tumor growth inhibition, TKD-50 mg/kg group compared with TKD-25 mg/kg group ([6]; intraperitoneal): had a better effect than the TKD-25 mg/kg group | inhibition of activation of EGFR downstream signal pathway KRas/Raf/ERK/c-myc (western blot) [7]: could significantly inhibit the activation of the EGFR downstream signal pathway KRas/Raf/ERK/c-myc | entry into cells (flow cytometry, Cy5 fluorescence) [8]: could not enter the normal colorectal epithelial cells | inhibition of clone growth [9]: could significantly inhibit the growth

From patent US12508311B2, “Fusion protein, and preparation method and use thereof” (SUN YAT-SEN UNIVERSITY, priority 2021, dated 2025)
